The chains are these.
B1: Inositol phosphate phosphatase SopB (Salmonella typhimurium), O30916 (parent)
chain: MQIQSFYHSASLKTQEAFKSLQKTLYNGMQILSGQGKAPAKAPDARPEIIVLREPGATWGNYLQHQKASNHSLHNLYNLQRDLLTVAATVLGKQDPVLTSMANQMELAKVKADRPATKQEEAAAKALKKNLIELIAARTQQQDGLPAKEAHRFAAVAFRDAQVKQLNNQPWQTIKNTLTHNGHHYTNTQLPAAEMKIGAKDIFPSAYEGKGVCSWDTKNIHHANNLWMSTVSVHEDGKDKTLFCGIRHGVLSPYHEKDPLLRHVGAENKAKEVLTAALFSKPELLNKALAGEAVSLKLVSVGLLTASNIFGKEGTMVEDQMRAWQSLTQPGKMIHLKIRNKDGDLQTVKIKPDVAAFNVGVNELALKLGFGLKASDSYNAEALHQLLGNDLRPEARPGGWVGEWLAQYPDNYEVVNTLARQIKDIWKNNQHHKDGGEPYKLAQRLAMLAHEIDAVPAWNCKSGKDRTGMMDSEIKREIISLHQTHMLSAPGSLPDSGGQKIFQKVLLNSGNLEIQKQNTGGAGNKVMKNLSPEVLNLSYQKRVGDENIWQSVKGISSLITS

The variants in the first assay derive from B1. Particulars: with cdc42_human CDC42, P60953.
cdc42_human CDC42, P60953, sequence (P60953 whole entry, looked up): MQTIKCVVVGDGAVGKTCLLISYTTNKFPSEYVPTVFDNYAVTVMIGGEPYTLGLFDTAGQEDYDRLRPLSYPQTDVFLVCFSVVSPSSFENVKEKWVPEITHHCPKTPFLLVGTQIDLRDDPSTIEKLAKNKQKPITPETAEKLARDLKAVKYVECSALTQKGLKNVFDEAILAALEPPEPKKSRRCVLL
As for L73P;R466A, the “effect of a mutation on the interaction” value is given as “decreasing interaction”.

Consider L52P, for which the “effect of a mutation on the interaction” value was “decreasing interaction”.

For L84P;R466A, the “effect of a mutation on the interaction” value is “decreasing interaction”.

In the case of L63P;R466A, the “effect of a mutation on the interaction” value is “decreasing interaction”.

On to L76P;R466A, for which the “effect of a mutation on the interaction” value was “decreasing interaction”.

The variants in the next assay derive from B1. The note with it: with cdc42_human CDC42, P60953. The source holds these as a separate data set.
In the case of L84P, the “effect of a mutation on the interaction” value was “decreasing interaction”.

As to L73P, the “effect of a mutation on the interaction” value is recorded as “decreasing interaction”.

On to L76P, for which the “effect of a mutation on the interaction” value was “decreasing interaction”.

In the case of L63P, the “effect of a mutation on the interaction” value is recorded as “decreasing interaction”.

The values are drawn from IntAct's records for PubMed 21435037.
